Laboratory results as given in PMC2672617, “Abl Kinase Inhibits the Engulfment of Apopotic Cells in Caenorhabditis elegans” (PLoS Biology, 2009).

Experiments:
[1] = target: GST-ABI-1Δ (N-terminal GST fusion to the product of the abi-1(tm494) allele) (C. elegans) (UniProt Q10929); assay: pull-down; GST, GST-ABI or GST-ABIΔ on glutathione beads incubated with 25 μl of a 100 μl 35S-labelled in vitro transcription/translation reaction; 2 h at 4 °C in PBB2 (25 mM HEPES pH 7.6, 150 mM NaCl, 5 mM MgCl2, 0.1 mM EDTA, 0.1% Tween-20, 0.25% BSA); washes with 300 and 250 mM NaCl; SDS-PAGE, autoradiography, phosphorimager quantitation
[2] = target: T1, GST-ABI-1 (glutathione-S-transferase fused to the N terminus of full-length C. elegans ABI-1) (C. elegans, UniProt Q10929 1-469); assay: as above; conditions: one partner purified
T1 construct: ABI-1, C. elegans homolog of the Abi proteins; full-length abi-1 from cDNA yk1204a12, bp 47-1,456; Cloned in pDEST15 (Gateway). bp 47-1,456 is 1,410 bp, i.e. 469 codons and a stop if the stop codon is included; not shown: GST, N-terminal, kept
T1 sequence (looked up): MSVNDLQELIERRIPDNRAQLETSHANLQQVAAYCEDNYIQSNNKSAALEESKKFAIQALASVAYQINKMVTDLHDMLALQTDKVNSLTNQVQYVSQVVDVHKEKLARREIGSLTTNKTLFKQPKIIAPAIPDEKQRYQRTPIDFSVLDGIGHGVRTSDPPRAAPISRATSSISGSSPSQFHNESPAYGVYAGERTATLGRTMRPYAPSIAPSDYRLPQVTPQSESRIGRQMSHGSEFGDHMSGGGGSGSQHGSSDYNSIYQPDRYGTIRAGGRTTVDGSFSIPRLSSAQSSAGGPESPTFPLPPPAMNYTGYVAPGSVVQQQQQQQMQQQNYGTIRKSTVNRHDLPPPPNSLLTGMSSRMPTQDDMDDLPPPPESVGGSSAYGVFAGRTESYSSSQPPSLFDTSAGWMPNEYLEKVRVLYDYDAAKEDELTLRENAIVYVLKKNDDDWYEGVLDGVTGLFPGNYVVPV

fold less ABL-1(112–611) bound than by ABI-1 [1]: 3 fold
fold binding in the ABI-1 lane over the GST lane (phosphorimager) [2]: 8 fold
B1: ABL-1(112–611), N-terminal fragment of C. elegans ABL-1 (domain or fragment, UniProt P03949 112-611, looked up)
chain: SSSSSAPLFVALYDFHGVGEEQLSLRKGDQVRILGYNKNNEWCEARLYSTRKNDASNQRRLGEIGWVPSNFIAPYNSLDKYTWYHGKISRSDSEAILGSGITGSFLVRESETSIGQYTISVRHDGRVFHYRINVDNTEKMFITQEVKFRTLGELVHHHSVHADGLICLLMYPASKKDKGRGLFSLSPNAPDEWELDRSEIIMHNKLGGGQYGDVYEGYWKRHDCTIAVKALKEDAMPLHEFLAEAAIMKDLHHKNLVRLLGVCTHEAPFYIITEFMCNGNLLEYLRRTDKSLLPPIILVQMASQIASGMSYLEARHFIHRDLAARNCLVSEHNIVKIADFGLARFMKEDTYTAHAGAKFPIKWTAPEGLAFNTFSSKSDVWAFGVLLWEIATYGMAPYPGVELSNVYGLLENGFRMDGPQGCPPSVYRLMLQCWNWSPSDRPRFRDIHFNLENLISSNSLNDEVQKQLKKNNDKKLESDKRRSNVRERSDSKSRHSSHHD
modifications: labeled with 35S in vitro
notes: contains the SH3, SH2 and tyrosine kinase domains; Cloned in pDEST14 (Gateway) for expression in vitro; also called N-terminal half of ABL-1; source: in vitro translated (TNT T7 Quick Coupled Transcription/Translation system, Promega)
